According to patent publication US20090275637:

Biological target: T1, PTP1B catalytic domain (321 residues), GST fusion (Homo sapiens) (UniProt P18031)
T1 sequence: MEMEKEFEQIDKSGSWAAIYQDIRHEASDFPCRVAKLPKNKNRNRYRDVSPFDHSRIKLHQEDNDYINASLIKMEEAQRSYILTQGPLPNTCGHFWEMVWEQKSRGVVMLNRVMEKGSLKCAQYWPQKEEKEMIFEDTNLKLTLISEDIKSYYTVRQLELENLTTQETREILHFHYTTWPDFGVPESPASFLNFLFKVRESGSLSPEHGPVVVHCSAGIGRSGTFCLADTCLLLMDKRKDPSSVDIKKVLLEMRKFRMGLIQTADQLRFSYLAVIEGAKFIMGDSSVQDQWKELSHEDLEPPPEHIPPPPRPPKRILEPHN
Assay: filter
Details: round 0 pool, 200-400 nM PTP1B, 125 mM NaCl, 5 mM MgCl2

## GGGAAUGGAUCCACAUCUACGAAUUCNNNNNNNNNNNNNNNNNNNNNNNNNNNNNNUUCACUGCAGACUUGACGAAGCUU [N30 initial pool]
  binding: < 1 % retained
